Source: patent US20220073907A1, “TAGLESS ENCODED CHEMICAL LIBRARY” (NANNA THERAPEUTICS LIMITED, priority 2016, published 2022)

B1: RNase T1: enzyme which cleaves its associated linker in a scarless manner; stock 10 mg/ml (protein, UniProt P00651 27-130, looked up)
Guanyl-specific ribonuclease …: ACDYTCGSNCYSSSDVSTAQAAGYQLHEDGETVGSNSYPHKYNNYEGFDFSVSSPYYEWPILSSGDVYSGGSPGADRVVFNENNQLAGVITHTGASGNNFVECT
B2: RNase A: enzyme which cleaves its associated RNA linker in a scarless manner; stock 10 mg/ml (protein, UniProt P61823 27-150, looked up)
Ribonuclease pancreatic: KETAAAKFERQHMDSSTSAASSSNYCNQMMKSRNLTKDRCKPVNTFVHESLADVQAVCSQKNVACKNGQTNCYQSYSTMSITDCRETGSSKYPNCAYKTTQANKHIIVACEGNPYVPVHFDASV

Columns and labels:
[1] = system: cleavable oligonucleotide; assay: Enzymatic release of BHQ-1 quencher from FITC-labelled cleavable oligonucleotide, denaturing gel; assay type: biochemical; conditions: 10-fold serial dilutions of stock enzyme from 10^−2 to 10^−5 in 10 mM Tris-HCl pH 7.5, 1 mM EDTA; 150 nM cleavable oligonucleotide
Text: Referring now to FIG. 4, to show cleavage of the linker and release of the pharmacore oligonucleotides were made which incorporated a fluorophore (FITC, shown as F in FIG. 4) 5′ to the cleavable linker within the sequence of the cleavable oligonucleotide. A quencher molecule, BHQ-1, was then attached to the cleavable linker. This can be released by cleavage in the same manner as any chemical structure used in library generation. Light up of the oligonucleotide is seen when the quencher is removed from the cleavable linker.
Three different enzymes have been identified which cleave their associated linkers in a scarless manner (RNase A, RNase T1 A and RNase 1 A; labelled as enzymes A, B and C respectively in FIG. 4). All 3 were tested with their compatriot linkers. In each case 10 μl reactions were set up; 10 mM Tris-HCl, 1 mM EDTA, 150 nM cleavable oligonucleotide 0.1 μl of stock enzyme (RNase A=10 mg/ml, RNase T1=10 mg/ml RNase 1=1.5 mg/ml) then to 10 μl with nuclease free water. Samples were incubated for 15 minutes at 37° C. and then 10 μL denaturing loading dye added (95% formamide, 0.1% xylene cyanole, 0.1% Bromophenol Blue, 20 mM Tris-HCl pH 7.5). Samples were boiled for 2 minutes at 95° C. and then rapidly cooled to 4° C. at 4° C./s. These samples were then loaded onto a denaturing TBE-gel (12.5% polyacrylamide, 7M Urea). The gel was run at 150V for 75 minutes and the imaged using a Syngene Ingenius3 system exciting the FITC. Release of the quencher means the fluorophore can be seen and imaged as ‘light up’. This is seen as appearance of yellow DNA band in the presence of enzyme. By staining with SyBr gold (Thermo) DNA can be seen and this is again quenched when quencher is present but the size shift corresponding to the change in mass can be seen as well as increased signal (grey scale image below fluorophore, FIG. 4). In both cases we can see release only occurs in the presence of the enzymes and is rapid (<15 minutes). […]

[2] = system: cleavable oligonucleotide; assay: Enzymatic release of payload from cleavable linker in 100 μm aqueous droplets; assay type: biochemical; conditions: 10 μl stock RNase A (10 mg/ml) per 1 ml aqueous phase, 37° C. for 15 minutes, 100 μm droplets
Method: We also confirmed that the enzymes function in the droplet environment (see FIG. 5). Results are shown for RNase A. 1 ml of aqueous phase was set up using 10 mM Tris-HCl, 1 mM EDTA, 150 nM cleavable oligonucleotide 10 μl of stock RNase A (10 mg/ml) then to 1 ml with nuclease free water. Droplets of […] mean diameter were made using a 100 μm etch depth chip with the aqueous phase as described above and the oil phase comprising of PSF-2 cST oil (Clearco Products Inc.) with 2% w/v Gransurf G67 (Grant Industries Inc.) Droplets were incubated with and without enzyme at 37° C. for 15 minutes and them imaged under a Floid fluorescence microscope illuminating at 482/18 nm and emission filters of 532/59 nm.

RNA guides = assay: RNaseA cleavage of RNA guides in growth media; assay type: biochemical
Jurkat cells = assay: Effect of RNaseA in the cell mixture on cellular growth; assay type: cell-based; conditions: 0.1 μg/ml in the cell mixture
Text: DNA guides assembly of monomers—were synthesised using conventional chemistry the RNA tags were synthesised in advance by IDT. The last 3 nucleotides contain phosphorothioate linkages to prevent cleavage by exonucleases. Individual reagents are then tagged with a guide to a specific RNA specific to a unique sequence incorporated into the guide oligonucleotide (100 unique monomers can be assembled, assuming up to 4 guide sequences into over 100,000,000 unique compounds). […] 1) Beads are packed into a column (each bead is clonal with a unique DNA sequence to guide assembly but μM concentrations of this clonal guide on each bead) and at 20 μM 200 million can be present per ml of bead volume. 2) A pool of monomers and appropriate reagents are then washed onto the column and reactions allowed to proceed, the column can be washed and new reaction chemistry added as needed (note fresh monomers can also be added). 3) Chemical synthesis varies with monomers used (see example 2, section 4). 4) Finally the beads are washed with 10 column volumes of TE with 100 mM NaCl and then 2 column volumes of appropriate media for growth of cells in the phenotypic screen e.g. RPMI. 5) Beads are then collected in the growth media and ready for encapsulation with target cells. […]

| Molecule | dilution of the enzyme at which activity is seen [1] | light up (quencher release) in droplets [2] | duration of enzyme activity in growth media (RNA guides; 0.1 μg/ml, growth media tested) | time for cleavage of RNA guides (RNA guides; in RPMI, lysogeny broth, tryptic soy broth and DMEM) [min] | effect on cellular growth (Jurkat cells) |
| --- | --- | --- | --- | --- | --- |
| RNase 1: enzyme which cleaves its associated linker in a scarless manner; stock 1.5 mg/ml | 10^−3 |  |  |  |  |
| B1 | 10^−3 |  |  |  |  |
| B2 | 10^−4 | light up occurs in droplets in the presence of enzyme | at least 48 h | 15 to 20 | doesn't affect cellular growth |
